We go through 14 molecules from patent US20250136717A1 (BYONDIS B V, published 2025).

Where two headings read alike, the source gives them in different places.

Assay [1] addresses T1, Biotinylated Human TROP2/TACSTD2 Protein, His Avitag, Cat. No. TR2-H82E5 (human, UniProt P09758 27-274, biotinylated).
T1 construct: immobilized on SAX biosensor tips
T1 sequence (looked up): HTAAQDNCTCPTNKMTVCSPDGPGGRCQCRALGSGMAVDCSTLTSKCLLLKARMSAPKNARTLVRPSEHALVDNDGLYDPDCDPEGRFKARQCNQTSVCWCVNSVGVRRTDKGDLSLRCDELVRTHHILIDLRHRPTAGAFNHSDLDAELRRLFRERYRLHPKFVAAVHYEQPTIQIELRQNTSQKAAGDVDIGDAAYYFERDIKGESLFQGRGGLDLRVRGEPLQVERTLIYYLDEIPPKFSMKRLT
Put plainly: BLI, TROP2 on SAX tips. (Biolayer interferometry detects binding as a change in optical thickness at a sensor tip.)
Excerpt: (§1) To correct for differences in concentration between the analyte stocks, Protein A binding was estimated for the same samples.
(§2) The 70s report point corresponds to 10s of association, since a baseline is created in the first 60 seconds.

For assay [2], the target named is T2, Protein A (Protein A sensor tips, Forte Bio, 18-5012) (UniProt P38507 37-327).
T2 construct: used to correct for the concentration of the antibody samples
The experiment in a line: BLI, Protein A tips.
Excerpt: as §1, §2

Assay [3] concerns the target T1, Biotinylated Human TROP2/TACSTD2 …. Put plainly: BLI, TROP2 signal over Protein A signal.
Excerpt: as §1, §2
The target in assay [4] is T2, Protein A (Protein A sensor tips, Forte …). The experiment in a line: BLI, Protein A tips. The source holds these as a separate data set.
Excerpt: as §1
Assay [5] deals with T3, Biotinylated Human EpCAM/TROP1 Protein, Avitag His tag, Cat. No. EPM-H82E8 (human, UniProt P16422 24-265, biotinylated).
T3 construct: immobilized on SAX biosensor tips
T3 sequence (looked up): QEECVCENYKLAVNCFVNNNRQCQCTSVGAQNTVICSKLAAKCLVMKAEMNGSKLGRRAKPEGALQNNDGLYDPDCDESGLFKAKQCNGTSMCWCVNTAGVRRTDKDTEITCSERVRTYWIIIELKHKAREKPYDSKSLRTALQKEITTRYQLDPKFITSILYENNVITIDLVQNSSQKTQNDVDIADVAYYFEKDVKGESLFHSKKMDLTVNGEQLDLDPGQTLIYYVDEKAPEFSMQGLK
Put plainly: BLI, EpCAM on SAX tips.
Excerpt: as §1, §2

Assay [6] concerns the target T3, Biotinylated Human EpCAM/TROP1 Protein, …. Put plainly: BLI, EpCAM signal over Protein A signal.
Excerpt: as §1, §2
Assay [7] deals with T2, Protein A (Protein A sensor tips, Forte …). Put plainly: BLI, Protein A tips. The source holds these as a separate data set.
Excerpt: as §1, §2
The target of assay [8] is T3, Biotinylated Human EpCAM/TROP1 Protein, …. Put plainly: BLI, EpCAM signal over Protein A signal. This is another data set of the same source.
Excerpt: as §1, §2
Assay [9] deals with T2, Protein A (Protein A sensor tips, Forte …). The experiment in a line: BLI, Protein A tips. This is another data set of the same source.
Excerpt: as §1, §2
For assay [10], the target named is T3, Biotinylated Human EpCAM/TROP1 Protein, …. Put plainly: BLI, EpCAM on SAX tips. This is another data set of the same source.
Excerpt: as §1, §2
Assay [11] concerns the target T2, Protein A (Protein A sensor tips, Forte …). Put plainly: BLI, Protein A tips. This is another data set of the same source.
Excerpt: as §1

B1: S307 (antibody, human IgG1, kappa)
heavy: not shown
light: QVQLVESGGGLVQPGGSLTLSCTASGFTLDHYDIGWFRQAPGKEREGVSCINNSDDDTYYADSVKGRFTIFMNNAKDTVYLQMNSLKPEDTAIYYCAEARGCKRGRYEYDFWGQGTQVTVSSGGGGSPLGLAGGGSDIQLTQSPSSLSASVGDRVSITCKASQDVSIAVAWYQQKPGKAPKLLIYSASYRYTGVPDRFSGSGSGTDFTLTISSLQPEDFAVYYCQQHYITPLTFGAGTKVEIKRTVAAPSVFIFPPSDEQLKSGTASVVCLLNNFYPREAKVQWKVDNALQSGNSQESVTEQDSKDSTYSLSSTLTLSKADYEKHKVYACEVTHQGLSSPVTKSFNRGEC
notes: also called masked sacituzumab Qg-BC2T-L9-HC / BC2-Nb-L9-LC
For B1, in assay [1], the “TROP2 binding after 10 s of association” value came out at 0.0345 nm. Also, the “Protein A binding after 10 s of association” value (from here on “Protein A binding after 10 s”) in [2] came out at 1.11 nm. In addition, the “TROP2/Protein A * 1000” value in assay [3] worked out at 31.1.

B2: S308 (antibody, human IgG1, kappa)
heavy: not shown
light: B1 light
notes: also called masked P41C sacituzumab Qg-BC2T-L9-HC (P41C) / BC2-Nb-L9-LC
In the case of B2, the “TROP2 binding after 10 s of association” value in assay [1] came out at 0.0154 nm. The “Protein A binding after 10 s” value in assay [2] was determined as 0.646 nm. Also, the “TROP2/Protein A * 1000” value in [3] was 23.8.

B3: S306 (antibody, human IgG1, kappa)
heavy: not shown
light: DIQLTQSPSSLSASVGDRVSITCKASQDVSIAVAWYQQKPGKAPKLLIYSASYRYTGVPDRFSGSGSGTDFTLTISSLQPEDFAVYYCQQHYITPLTFGAGTKVEIKRTVAAPSVFIFPPSDEQLKSGTASVVCLLNNFYPREAKVQWKVDNALQSGNSQESVTEQDSKDSTYSLSSTLTLSKADYEKHKVYACEVTHQGLSSPVTKSFNRGEC
notes: also called Anti-TROP2 sacituzumab hRS7 (naked)
Take B3: in [1], the “TROP2 binding after 10 s of association” value amounted to 0.749 nm. Further, in [2], the “Protein A binding after 10 s” value stood at 0.915 nm. The “TROP2/Protein A * 1000” value in [3] amounted to 818.

B4: S310 (antibody, human IgG1, kappa)
heavy: not shown
light: QVQLVESGGGLVQPGGSLTLSCTASGFTLDHYDIGWFRQAPGKEREGVSCINNSDDDTYYADSVKGRFTIFMNNAKDTVYLQMNSLKPEDTAIYYCAEARGCKRGRYEYDFWGQGTQVTVSSGGGGSPLGLAGGGSDIQMTQSPSSLSASVGDRVTITCKASQDIRKYLNWYQQKPGKAPKLLIYYATSLADGVPSRFSGSGSGTDYTFTISSLQPEDIATYYCLQHGESPYTFGQGTKLEITRTVAAPSVFIFPPSDEQLKSGTASVVCLLNNFYPREAKVQWKVDNALQSGNSQESVTEQDSKDSTYSLSSTLTLSKADYEKHKVYACEVTHQGLSSPVTKSFNRGEC
notes: also called masked MORAb-066 Qg-BC2T-L9-HC / BC2-Nb-L9-LC
Take B4: the “Protein A binding after 10 s” value in assay [4] was found to be 0.993 nm.

B5: S311 (antibody, human IgG1, kappa)
heavy: not shown
light: B4 light
notes: also called masked P41C MORAb-066 Qg-BC2T-L9-HC (P41C) / BC2-Nb-L9-LC
For the molecule B5, the “Protein A binding after 10 s” value in assay [4] came out at 1.33 nm.

B6: S300 (antibody, human IgG1, kappa)
heavy: not shown
light: DIVMTQSALSNPVTLGESGSISCRSSKSLLHSNGITYLYWYLQKPGQSPQLLIYQMSNRASGVPDRFSSSGSGTDFTLKISRVEAEDVGVYYCAQNLELPRTFGQGTKLEMKRTVAAPSVFIFPPSDEQLKSGTASVVCLLNNFYPREAKVQWKVDNALQSGNSQESVTEQDSKDSTYSLSSTLTLSKADYEKHKVYACEVTHQGLSSPVTKSFNRGEC
notes: also called Anti-EpCAM ING-1 (naked)
Turning to B6, the “EpCAM binding after 10 s of association” value in assay [5] is 0.947 nm. Moreover, the “EpCAM/Protein A * 1000” value in assay [6] came to 997. In addition, in assay [7], the “Protein A binding after 10 s” value turned out to be 0.95 nm.

B7: S303 (antibody, human IgG1, kappa)
heavy: not shown
light: ELQMTQSPSSLSASVGDRVTITCRTSQSISSYLNWYQQKPGQPPKLLIYWASTRESGVPDRFSGSGSGTDFTLTISSLQPEDSATYYCQQSYDIPYTFGQGTKLEIKRTVAAPSVFIFPPSDEQLKSGTASVVCLLNNFYPREAKVQWKVDNALQSGNSQESVTEQDSKDSTYSLSSTLTLSKADYEKHKVYACEVTHQGLSSPVTKSFNRGEC
notes: also called Anti-EpCAM adecatumumab (MT-201) (naked)
Consider B7, for which the “EpCAM/Protein A * 1000” value in [8] was 599. Also, in assay [9], the “Protein A binding after 10 s” value came out at 3.09 nm. For the same molecule, the “EpCAM binding after 10 s of association” value in [10] came out at 1.85 nm.

B8: S309 (antibody, human IgG1, kappa)
heavy: not shown
light: DIQMTQSPSSLSASVGDRVTITCKASQDIRKYLNWYQQKPGKAPKLLIYYATSLADGVPSRFSGSGSGTDYTFTISSLQPEDIATYYCLQHGESPYTFGQGTKLEITRTVAAPSVFIFPPSDEQLKSGTASVVCLLNNFYPREAKVQWKVDNALQSGNSQESVTEQDSKDSTYSLSSTLTLSKADYEKHKVYACEVTHQGLSSPVTKSFNRGEC
notes: also called Anti-TF MORAb-066, CNT0860 (naked)
As for B8, the “Protein A binding after 10 s” value in [4] amounted to 1.79 nm.

B9: S301 (antibody, human IgG1, kappa)
heavy: not shown
light: QVQLVESGGGLVQPGGSLTLSCTASGFTLDHYDIGWFRQAPGKEREGVSCINNSDDDTYYADSVKGRFTIFMNNAKDTVYLQMNSLKPEDTAIYYCAEARGCKRGRYEYDFWGQGTQVTVSSGGGGSPLGLAGGGSDIVMTQSALSNPVTLGESGSISCRSSKSLLHSNGITYLYWYLQKPGQSPQLLIYQMSNRASGVPDRFSSSGSGTDFTLKISRVEAEDVGVYYCAQNLELPRTFGQGTKLEMKRTVAAPSVFIFPPSDEQLKSGTASVVCLLNNFYPREAKVQWKVDNALQSGNSQESVTEQDSKDSTYSLSSTLTLSKADYEKHKVYACEVTHQGLSSPVTKSFNRGEC
notes: also called masked ING-1 Qg-BC2T-L9-HC / BC2-Nb-L9-LC
Turning to B9, the “EpCAM binding after 10 s of association” value in [5] came to 0.074 nm. For the same molecule, in assay [6], the “EpCAM/Protein A * 1000” value was determined as 137. Besides, in [7], the “Protein A binding after 10 s” value was 0.541 nm.

B10: S302 (antibody, human IgG1, kappa)
heavy: not shown
light: B9 light
notes: also called masked P41C ING-1 Qg-BC2T-L9-HC (P41C) / BC2-Nb-L9-LC
Consider B10, for which the “EpCAM binding after 10 s of association” value in assay [5] came out at 0.0354 nm. In addition, the “EpCAM/Protein A * 1000” value in [6] was 129. Also, the “Protein A binding after 10 s” value in [7] was 0.275 nm.

B11: S304 (antibody, human IgG1, kappa)
heavy: not shown
light: QVQLVESGGGLVQPGGSLTLSCTASGFTLDHYDIGWFRQAPGKEREGVSCINNSDDDTYYADSVKGRFTIFMNNAKDTVYLQMNSLKPEDTAIYYCAEARGCKRGRYEYDFWGQGTQVTVSSGGGGSPLGLAGGGSELQMTQSPSSLSASVGDRVTITCRTSQSISSYLNWYQQKPGQPPKLLIYWASTRESGVPDRFSGSGSGTDFTLTISSLQPEDSATYYCQQSYDIPYTFGQGTKLEIKRTVAAPSVFIFPPSDEQLKSGTASVVCLLNNFYPREAKVQWKVDNALQSGNSQESVTEQDSKDSTYSLSSTLTLSKADYEKHKVYACEVTHQGLSSPVTKSFNRGEC
notes: also called masked adecatumumab Qg-BC2T-L9-HC / BC2-Nb-L9-LC
On to B11, for which the “EpCAM/Protein A * 1000” value in [8] came to 18.3. For the same molecule, the “Protein A binding after 10 s” value in assay [9] was determined as 1.35 nm. Also, the “EpCAM binding after 10 s of association” value in assay [10] was 0.0247 nm.

B12: S305 (antibody, human IgG1, kappa)
heavy: not shown
light: B11 light
notes: also called masked P41C adecatumumab Qg-BC2T-L9-HC (P41C) / BC2-Nb-L9-LC
For the molecule B12, the “EpCAM/Protein A * 1000” value in assay [8] was found to be 14.5. In [9], the “Protein A binding after 10 s” value was found to be 1.31 nm. For the same molecule, in [10], the “EpCAM binding after 10 s of association” value is 0.0189 nm.

B13: S313 (antibody)
heavy: not shown
light: QVQLVESGGGLVQPGGSLTLSCTASGFTLDHYDIGWFRQAPGKEREGVSCINNSDDDTYYADSVKGRFTIFMNNAKDTVYLQMNSLKPEDTAIYYCAEARGCKRGRYEYDFWGQGTQVTVSSGGGGSPLGLAGGGSDIQMTQSPPSLSASAGDRVTITCRASQGISSRLAWYQQKPEKAPKSLIYAASSLQSGVPSRFSGSGSGTDFTLTISSLQPEDFATYYCQQYNSYPYTFGQGTKLEIKRTVAAPSVFIFPPSDEQLKSGTASVVCLLNNFYPREAKVQWKVDNALQSGNSQESVTEQDSKDSTYSLSSTLTLSKADYEKHKVYACEVTHQGLSSPVTKSFNRGEC
notes: also called masked tisotumab Qg-BC2T-L9-HC / BC2-Nb-L9-LC
Regarding B13, the “Protein A binding after 10 s” value in assay [11] came out at 1.73 nm.

B14: S314 (antibody)
heavy: not shown
light: B13 light
notes: also called masked P41C tisotumab Qg-BC2T-L9-HC (P41C) / BC2-Nb-L9-LC
For the molecule B14, the “Protein A binding after 10 s” value in [11] came to 1.37 nm.
